Measured values published in article doi:10.1101/2023.05.22.541649.
Each block holds one substance with its values, some of them ahead of it.

Key:
[1] = target: GFP-CENP-T^1–242^/3D-I3-01 (human) (UniProt Q96BT3); test: fluorescence intensity of single particles
[2] = target: GFP-CENP-T^1–242–I3-01 (human) (UniProt Q96BT3); test: affinity purification with mass spectrometry
[3] = target: GFP-CENP-T^1–242–I3-01 (human) (UniProt Q96BT3); test: fluorescence intensity of single particles
GFP-I3-01 = test: fluorescence intensity of single particles
[4] = target: GFP-CENP-T^1–242^/3D (human) (UniProt Q96BT3); test: single-molecule TIRF binding assay; conditions: scale: NDC80^Bonsai complexes per GFP-CENP-T^1–242^/3D molecule
[5] = target: GFP-CENP-T^1–242^/3D-I3-01 (human) (UniProt Q96BT3); test: single-molecule TIRF binding assay; conditions: scale: NDC80^Bonsai molecules per GFP-CENP-T^1–242^/3D molecule
GFP-I3-01 (recombinant) = test: fluorescence intensity of single particles

Substance: GFP-CENP-T^1–242^/3D-I3-01 (from UniProt Q96BT3 1-242)
stoichiometry N (molecules per complex) [1]: 66

Substance: GFP-CENP-T^1–242–I3-01 (from UniProt Q96BT3 1-242)
stoichiometry N (GFP molecules per oligomer) [3]: 41

Substance: GFP-I3-01
stoichiometry N (GFP molecules per oligomer) (GFP-I3-01): 51

Substance: GFP-tagged NDC80^Bonsai complex
stoichiometry N [4]: 0.28
stoichiometry N [5]: 2.2

Substance: GFP-I3-01 (recombinant)
stoichiometry N (GFP molecules per oligomer) (GFP-I3-01 (recombinant)): 44

The next lines start with the values.

fold more per CENP-T molecule than with monomeric GFP-CENP-T^1–242 [2]: 5.4 fold
Substance: MIS12 complex (from UniProt Q9H081 1-205)

fold more per CENP-T molecule than with monomeric GFP-CENP-T^1–242 [2]: 2.7 fold
Substance: KNL1 complex (from UniProt Q8NG31 1-2342)

fold more per CENP-T molecule than with monomeric GFP-CENP-T^1–242 [2]: 5.6 fold
Substance: NDC80 complex (from UniProt O14777 1-642; Q8NBT2 1-197; Q9HBM1 1-224)
